Changes are numbered by the printed parent chain.
T1: recombinant human BCMA protein (Acrobiosystems BCA-H522y) (human, UniProt Q02223 1-54)
T1 construct: bought protein
T1 sequence (looked up): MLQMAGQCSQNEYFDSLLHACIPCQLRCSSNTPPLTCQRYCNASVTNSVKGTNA

B1: anti-BCMA-PP02-C2 FAB (Fab, V domains shown)
VH: QVQLVQSGAEVKKPGSSVKVSCKASGGHFSSYAISWVRQAPGQGLEWMGGIIPQHGVPSYAQKFQGRVTITADESTSTAYMELSSLRSEDTAVYYCARVLITVDGSYGGFDYWGQGTLVTVSS
VL: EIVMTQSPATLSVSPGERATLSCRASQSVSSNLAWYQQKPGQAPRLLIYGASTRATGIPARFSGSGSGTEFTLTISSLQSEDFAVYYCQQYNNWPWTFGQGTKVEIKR
notes: Fab
B2: anti-BCMA-UCP01-E8 FAB (Fab, V domains shown)
VH: QVQLVQSGAEVKKPGSSVKVSCKASGGQFSVQFISWVRQAPGQGLEWMGGIIPTSGDTYYAQKFQGRVTITADESTSTAYMELSSLRSEDTAVYYCARSVVDLSYVTGYYYMDIWGQGTLVTVSS
VL: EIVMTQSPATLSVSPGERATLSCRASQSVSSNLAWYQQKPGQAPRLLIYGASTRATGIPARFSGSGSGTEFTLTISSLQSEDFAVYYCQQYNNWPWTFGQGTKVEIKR
notes: Fab
B3: anti-BCMA-UCP01-F9 FAB (Fab, V domains shown)
VH: QVQLVQSGAEVKKPGSSVKVSCKASGYKFRTYAINWVRQAPGQGLEWMGGIVPISGETFYAQKFQGRVTITADESTSTAYMELSSLRSEDTAVYYCAREDYSDYWGQGTLVTVSS
VL: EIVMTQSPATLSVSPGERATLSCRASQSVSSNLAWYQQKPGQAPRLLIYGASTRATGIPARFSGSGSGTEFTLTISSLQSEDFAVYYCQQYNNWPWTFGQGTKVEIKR
notes: Fab
B4: anti-BCMA-UCP01-A8 FAB (Fab, V domains shown)
VH: QVQLVQSGAEVKKPGSSVKVSCKASGGLFNYYIINWVRQAPGQGLEWMGGIIPTYGGAGYAQKFQGRVTITADESTSTAYMELSSLRSEDTAVYYCARSSPSISGYAFDVWGQGTLVTVSS
VL: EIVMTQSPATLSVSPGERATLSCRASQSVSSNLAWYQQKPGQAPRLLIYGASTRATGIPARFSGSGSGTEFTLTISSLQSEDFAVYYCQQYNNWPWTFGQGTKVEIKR
notes: Fab
B5: anti-BCMA-UCP01-C2 FAB (Fab, V domains shown)
VH: EVQLLESGGGLVQPGGSLRLSCAASGFIFSQYDMSWVRQAPGKGLEWVSAISLLGDFTSYADSVKGRFTISRDNSKNTLYLQMNSLRAEDTAVYYCARRLTDYISGGGDGFDVWGQGTLVTVSS
VL: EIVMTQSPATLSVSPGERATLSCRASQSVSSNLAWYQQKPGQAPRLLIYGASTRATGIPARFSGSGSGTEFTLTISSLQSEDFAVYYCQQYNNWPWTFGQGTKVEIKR
notes: Fab
B6: anti-BCMA-PP02-F1 FAB (Fab, V domains shown)
VH: EVQLLESGGGLVQPGGSLRLSCAASGFSFSEYAMSWVRQAPGKGLEWVSALSLSGDVTSYADSVKGRFTISRDNSKNTLYLQMNSLRAEDTAVYYCARSPYSRVGDSYYYDYIGFDIWGQGTLVTVSS
VL: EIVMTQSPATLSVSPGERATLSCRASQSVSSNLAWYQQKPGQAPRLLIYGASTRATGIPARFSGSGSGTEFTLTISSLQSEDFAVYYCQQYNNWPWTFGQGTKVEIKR
notes: Fab
B7: anti-BCMA-PP03-E4 FAB (Fab, V domains shown)
VH: EVQLLESGGGLVQPGGSLRLSCAASGFALSYYAMSWVRQAPGKGLEWVSAISEDGGRTSYADSVKGRFTISRDNSKNTLYLQMNSLRAEDTAVYYCARASAYIPYSEFYAGFDVWGQGTLVTVSS
VL: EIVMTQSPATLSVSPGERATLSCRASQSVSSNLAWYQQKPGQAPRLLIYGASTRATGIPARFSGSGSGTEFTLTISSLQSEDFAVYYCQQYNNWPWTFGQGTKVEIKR
notes: Fab
B8: anti-BCMA-PP02-E6 FAB (Fab, V domains shown)
VH: EVQLLESGGGLVQPGGSLRLSCAASGFTFSYYAMTWVRQAPGKGLEWVSTISQNGGQTKYADSVKGRFTISRDNSKNTLYLQMNSLRAEDTAVYYCARSPYSYLHGYYGFDYWGQGTLVTVSS
VL: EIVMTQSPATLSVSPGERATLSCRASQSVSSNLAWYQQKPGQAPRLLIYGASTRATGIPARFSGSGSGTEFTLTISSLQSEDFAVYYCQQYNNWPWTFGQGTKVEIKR
notes: Fab; also called anti-BCMA-E6; anti-BCMA-E6 Fab
B9: anti-BCMA-UCP01-E9 FAB (Fab, V domains shown)
VH: EVQLLESGGGLVQPGGSLRLSCAASGFTFSNYAMSWVRQAPGKGLEWVSVISERGAVTVYADSVKGRFTISRDNSKNTLYLQMNSLRAEDTAVYYCARSPYGYSSGVEGYFGFDVWGQGTLVTVSS
VL: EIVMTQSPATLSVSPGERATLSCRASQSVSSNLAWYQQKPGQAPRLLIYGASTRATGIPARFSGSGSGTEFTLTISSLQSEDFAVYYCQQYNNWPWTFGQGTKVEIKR
notes: Fab
B10: anti-BCMA-PP02-C4 FAB (Fab, V domains shown)
VH: EVQLLESGGGLVQPGGSLRLSCAASGFTFTAYDMSWVRQAPGKGLEWVSAISGFGGDTLYADSVKGRFTISRDNSKNTLYLQMNSLRAEDTAVYYCARIGYYYLDSAFDYWGQGTLVTVSS
VL: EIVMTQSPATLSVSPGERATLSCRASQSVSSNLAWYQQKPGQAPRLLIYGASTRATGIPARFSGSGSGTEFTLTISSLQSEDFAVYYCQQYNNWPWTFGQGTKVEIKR
notes: Fab
B11: anti-BCMA-PP03-C4 FAB (Fab, V domains shown)
VH: B10 VH
VL: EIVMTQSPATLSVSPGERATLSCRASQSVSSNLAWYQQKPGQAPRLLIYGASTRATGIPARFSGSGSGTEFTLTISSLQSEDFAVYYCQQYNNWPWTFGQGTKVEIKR
notes: Fab
B12: anti-BCMA-PP02-B4 FAB (Fab, V domains shown)
VH: B10 VH with T30S, A31N, G53V, F54S, G56D, D57F, L59Q, I99V, Y103L, Y110I
VL: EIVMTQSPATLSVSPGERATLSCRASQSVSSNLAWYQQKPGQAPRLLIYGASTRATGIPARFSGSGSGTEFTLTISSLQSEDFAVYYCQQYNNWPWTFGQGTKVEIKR
notes: Fab

Each binder was assayed against T2, recombinant cynomolgus monkey BCMA protein (Acrobiosystems BCA-C52H7) (cynomolgus monkey, UniProt A0A2K5UD97 1-53) (assay: SPR, Fab as analyte, immobilised cynomolgus BCMA).
T2 sequence (A0A2K5UD97 entry or part of it): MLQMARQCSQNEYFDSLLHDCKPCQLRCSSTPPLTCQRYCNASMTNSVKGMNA
Description: (§1) Surface plasmon resonance (SPR) was used to measure the binding affinities of the Fab fragments for human and cynomolgus monkey BCMA. Affinities were measured on a Biacore T200 instrument (Cytiva Life Sciences) at 25° C. and analyzed with the Biacore T200 Evaluation Software (v3.1). Measurements were performed on Series S CM5 Sensor Chips (Cytiva Life Sciences, catalog NO: BR100530). Recombinant human BCMA protein (Acrobiosystems, catalog NO: BCA-H522y) and recombinant cynomolgus monkey BCMA protein (Acrobiosystems, catalog NO: BCA-C52H7) were covalently immobilized to around 200 RU on flow-path 2 and flow-path 3 respectively of the Sensor Chip surface using a commercially available amine coupling kit (Cytiva Life Sciences, catalog NO: BR100050). […] Dissociation was monitored for 5 min. After each cycle, the Series S CM5 Sensor Chip surface coated with recombinant BCMA proteins was regenerated with 30 μl of 10 mM Glycine pH 1.5 (Cytiva Life Sciences, catalog NO: BR100354). Experimental data were processed using the 1:1 Langmuir kinetic fitting model. Measurements included zero-concentration samples for referencing. Chi², U- and residual values were used to evaluate the quality of a fit between the experimental data and individual binding models.
B1: no binding.
B2: no binding.
B3: no binding.
B4: no binding.
B5: no binding.

What follows are binders tested against T1, recombinant human BCMA protein … (assay: SPR, Fab as analyte, immobilised human BCMA, 1:1 Langmuir).
Description: as §1
Work on B1 yielded a Kd of 915 nM.
Binder B6 has a Kd of 145 nM.
Binder B7 has a Kd of 582 nM.
B2 showed a Kd of 1740 nM.
For B8, the Kd was 18 nM.
With B9 the Kd was 10 nM.
In the case of B3, the Kd is reported as 617 nM.
In the case of B4, the Kd is reported as 235 nM.
With B5 the Kd was 336 nM.
In the case of B10, the Kd is reported as 608 nM.
B11 was tested, and the Kd was 549 nM.
For B12, the Kd was 648 nM.

The binders below were run against T2, recombinant cynomolgus monkey BCMA … (assay: SPR, Fab as analyte, immobilised cynomolgus BCMA, 1:1 Langmuir).
Description: as §1
Work on B6 yielded a Kd of 598 nM.
In the case of B7, the Kd is reported as 696 nM.
B8 gave a Kd of 52 nM.
B9 gave a Kd of 236 nM.
B10 showed a Kd of 114 nM.
B11 gave a Kd of 109 nM.
B12 showed a Kd of 58 nM.

Source: patent US20240132615A1 (ICHNOS SCIENCES, published 2024)
